Assay results published in paper PMC8318589, “Structure and analysis of nanobody binding to the human ASIC1a ion channel” (eLife, 2021).

How the values were obtained:
[1] = target: T1, human ASIC1a-Flag (human) (UniProt P78348)
T1 sequence: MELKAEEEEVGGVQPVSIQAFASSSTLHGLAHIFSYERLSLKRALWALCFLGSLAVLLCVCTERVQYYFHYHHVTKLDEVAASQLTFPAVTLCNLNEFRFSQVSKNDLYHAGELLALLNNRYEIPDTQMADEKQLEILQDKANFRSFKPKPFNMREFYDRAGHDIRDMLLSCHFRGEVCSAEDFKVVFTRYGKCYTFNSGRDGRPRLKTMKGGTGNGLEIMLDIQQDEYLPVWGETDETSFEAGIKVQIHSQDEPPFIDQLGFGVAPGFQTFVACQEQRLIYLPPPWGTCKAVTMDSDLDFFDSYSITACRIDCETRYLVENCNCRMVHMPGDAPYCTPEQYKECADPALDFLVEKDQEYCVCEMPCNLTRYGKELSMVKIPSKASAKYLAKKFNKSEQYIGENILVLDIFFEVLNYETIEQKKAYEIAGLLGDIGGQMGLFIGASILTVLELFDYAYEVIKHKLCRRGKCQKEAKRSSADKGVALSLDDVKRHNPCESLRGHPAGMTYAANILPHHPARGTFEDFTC

[2] = target: T2, hASIC1a comprising amino acids 12–478 with a Strep Tag II in the N-terminus (human, UniProt P78348-2)
[3] = target: T3, human ASIC1a-Flag (Homo sapiens, ASIC1a (528 aa isoform), UniProt P78348-2); experiment: immunostaining of cells or tissue; transfected cells on coverslips incubated with Nb (1 nM, 1 hr, on ice) in the medium, washed, fixed, permeabilized; Nb detected by anti-HA, channel by anti-Flag; confocal microscopy; details: one partner purified
T3 construct: human acid-sensing ion channel 1a (ASIC1a); this molecule is used for them; also called hASIC1a; hASIC1a-Flag; source: HEK293T / HEK-293 cells, transfected (pcDNA3.1), on cells

[4] = target: T2, hASIC1a comprising amino acids 12–478 …; experiment: SEC; purified Nb.C1 added to crude membranes of 293 F cells expressing Strep-tagged hASIC1a (4°C, 3 hr) before solubilisation with 1% DDM; Strep Tactin XT affinity purification, then Superdex 200 Increase; peak run on Coomassie-stained SDS-PAGE; details: one partner purified
[5] = target: T2, hASIC1a comprising amino acids 12–478 …; experiment: SPR + immunostaining of cells or tissue; equilibrium constant worked out from the smallest kon of the SPR (purified, immobilised hASIC1a) and the upper limit of koff from the live-cell chase (hASIC1a on HEK293 cells); details: one partner purified
[6] = target: T4, mouse ASIC3-Flag (Mus musculus, ASIC3, UniProt Q6X1Y6); experiment: immunostaining of cells or tissue; transfected cells on coverslips incubated with Nb (1 nM, 1 hr, on ice) in the medium, washed, fixed, permeabilized; Nb detected by anti-HA, channel by anti-Flag; confocal microscopy; details: one partner purified
T4 construct: mouse acid-sensing ion channel 3 (ASIC3); also called mASIC3; source: transfected cells, on cells
T4 sequence (Q6X1Y6 whole entry): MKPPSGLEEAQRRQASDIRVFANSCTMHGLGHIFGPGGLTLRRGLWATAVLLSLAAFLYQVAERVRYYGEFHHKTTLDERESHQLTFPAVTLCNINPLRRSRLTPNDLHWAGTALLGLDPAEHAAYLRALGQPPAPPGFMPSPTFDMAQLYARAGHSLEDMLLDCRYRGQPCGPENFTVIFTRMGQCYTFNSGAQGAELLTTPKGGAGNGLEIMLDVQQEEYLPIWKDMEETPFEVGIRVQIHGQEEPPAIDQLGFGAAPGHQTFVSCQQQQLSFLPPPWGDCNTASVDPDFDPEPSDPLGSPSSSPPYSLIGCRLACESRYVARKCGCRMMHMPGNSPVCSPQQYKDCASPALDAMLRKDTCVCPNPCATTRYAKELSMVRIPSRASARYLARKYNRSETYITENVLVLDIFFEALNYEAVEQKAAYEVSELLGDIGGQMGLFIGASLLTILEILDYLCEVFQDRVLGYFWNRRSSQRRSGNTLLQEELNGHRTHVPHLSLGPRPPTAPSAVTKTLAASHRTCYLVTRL

[7] = target: T5, mouse ASIC1a-Flag (Mus musculus, ASIC1a, UniProt Q6NXK8-1); experiment: as above; details: one partner purified
T5 construct: mouse acid-sensing ion channel 1a (ASIC1a); also called mASIC1a; mASIC1; source: transfected cells, on cells

[8] = target: T6, chicken ASIC1-Flag (Gallus gallus, ASIC1, UniProt Q1XA76); experiment: as above; details: one partner purified
T6 construct: chicken acid-sensing ion channel 1 (cASIC1); also called cASIC1; source: transfected cells, on cells

[9] = target: T7, mouse ASIC2a-Flag (Mus musculus, ASIC2a (512 aa isoform), UniProt Q925H0-1); experiment: as above; details: one partner purified
T7 construct: mouse acid-sensing ion channel 2a (ASIC2a); also called mASIC2a; source: transfected cells, on cells
T7 sequence (Q925H0 whole entry, canonical isoform): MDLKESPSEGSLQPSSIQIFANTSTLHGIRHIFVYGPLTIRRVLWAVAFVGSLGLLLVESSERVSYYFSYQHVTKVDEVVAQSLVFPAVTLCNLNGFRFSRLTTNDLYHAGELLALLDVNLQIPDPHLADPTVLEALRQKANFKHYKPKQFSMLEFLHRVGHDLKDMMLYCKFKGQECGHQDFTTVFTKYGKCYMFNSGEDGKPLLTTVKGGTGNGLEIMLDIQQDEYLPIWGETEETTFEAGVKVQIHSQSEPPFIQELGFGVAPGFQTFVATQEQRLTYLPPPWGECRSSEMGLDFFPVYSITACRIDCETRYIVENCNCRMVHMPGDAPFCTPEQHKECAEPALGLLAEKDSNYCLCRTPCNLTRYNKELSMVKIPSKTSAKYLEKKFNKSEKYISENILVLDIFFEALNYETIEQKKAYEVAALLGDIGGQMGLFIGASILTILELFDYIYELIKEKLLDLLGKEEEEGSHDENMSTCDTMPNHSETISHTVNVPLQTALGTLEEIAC

[10] = target: T2, hASIC1a comprising amino acids 12–478 …; experiment: SPR; Biacore S200; hASIC1a amine-coupled to a CM5 chip (diluted in sodium acetate pH 5.0, 0.05% DDM); Nb.C1 injected at 0.41-100 nM, 30 µL/min; association 100 or 300 s, dissociation 300 or 3600 s; two protein preparations; global fits to association time courses; details: both partners purified
[11] = target: T3, human ASIC1a-Flag; experiment: immunostaining of cells or tissue; chase: live HEK293 cells transfected with hASIC1a-Flag incubated with 10 nM Nb.C1-HA for 30 min at 18°C, washed, followed for 0-4 hr with a wash each hour, then fixed; Nb.C1 fluorescence normalised to time 0; koff estimated from the lack of decay; details: one partner purified
[12] = target: the molecule itself; experiment: cryo-EM structure; hASIC1a-Nb.C1 complex in DDM, pH 7.4, 20 mM HEPES, 150 mM NaCl, 5 mM CaCl2, 3.8 mg/mL; C3 symmetry imposed

## psalmotoxin-1 (PcTx1) (from UniProt P60514 1-40) (peptide)
[1]
  time constant of recovery of pH 6.0-induced currents after 60 s with 10 nM PcTx1, oocytes expressing hASIC1a (two-electrode voltage clamp): 220 s

B1: 2B-D4 (VHH)
VHH: QVQLVESGGGLVQAGGSLRLSCAASGIAFSRYTMGWYRQAPGKQRELVADFSREGTTRYADAVKGRFTISRDNAKNTVYLEMNSLKPEDTAVYYCNARRPFLGNLANNWGRGTQVTVSS
[2]
  binding result: binds

B2: G4-3 (VHH)
VHH: QVQLVESGGGLVQPGGSLRLSCAASGSTLDYYAIGWFRQAPGKEREGVSCISRSGGSTYYADSVKGRFTISRDNAKNTVYLQMNSLKPEDTAVYYCAADRGAVGGIFNSDYDAQNSLPPCSYGMDYWGKGTLVTVSS
[2]
  binding result: binds

B3: F7 (VHH)
VHH: QVQLVESGGGLVMAGGSLSLSCAASGRLFSTWTMGWFRQAPGKEREFVGAIRRVGDSPSYADSVKGRFTISRDSTKNALYLKMNSLKPEDTAVYYCAAKRFGNEYEYWGQGTQVTVSS
[2]
  binding result: binds

B4: G11 (VHH)
VHH: QLQLVESGGGLVMAGGSLSLSCAASGRTFSTWTMAWFRQAPGKEREFVGAIRRIGDSPSYADSVKGRFTISRDNAKNALYLKMNSLKPEDTAVYYCAAKRFGNEYEYWGQGTQVTVSS
[2]
  binding result: binds

B5: A12-2 (VHH)
VHH: QLQLVESGGGLVMAGGSLSLSCAASGRLFSTWTMGWFRQAPGKEREFVGAIRRVGDSPSYADSVKGRFTISRDSTKNALYLKMNSLKPEDTAVYYCAAKRFGNEYEYWGQGTQVTVSS
[2]
  binding result: binds

B6: G4 (VHH)
VHH: QLQLVESGGGLVQPGGSLRLTCAASGFALDDYTIGWFRQAPGNEREGVACMHGGGIHIADSLKGRITISRDNAKNTVYLQMNSLKPEDTAVYYCAARLATATRWTCKLSDMDYWGKGTLVTVSS
[2]
  binding result: binds

B7: B11 (VHH)
VHH: QLQLVESGGGLVQPGGSLRLSCAASGLTLDNYAIGWFRQVPGKEREDVSCISTSHGSLHYANSVKGRFTISVDAAENTVYLQMNSLNAEDTAVYFCAARGFDSDCSVYGMDFWGKGTPVTVSS
[2]
  binding result: binds

B8: G10 (VHH)
VHH: QVQLVESGGGLVQPGGSLRLSCAASGGTLDVYTIGWFRQAPGKEREGLSCLSSSDGSTYYADSVKGRFTISRDNAKNTMYLQMNSLKPEDTAVYYCVAGAWTHVQAMCVTCFGCDWGQGTQVTVVS
[2]
  binding result: binds

B9: Nb D10 (VHH)
VHH: QVQLVESGGGLVQPGGSLRLSCAASGFTFNRATMSWYRQAPGKERELVATIGSFGISTNYTDSVKGRFTISRDNAKNTLYLQMNSLKPEDTAVYYCNARYRSTYPWGQGTQVTVSS
notes: alpaca VHH selected against hASIC1a; source: E. coli WK6, periplasm
[3]
  binding result: binds

B10: Nb H10 (VHH)
VHH: QVQLVESGGGLVQPGGSLRLTCAASGFTFSRATMSWYRQAPGKERELVATIGSFGVSTNYADSVKGRFTISRDNAKNTAYLYMNNLKPEDTAVYYCNAHYRSTYPWGQGTQVTVSS
notes: as for B9
[3]
  binding result: binds

B11: Nb C4 (VHH)
VHH: QVQLVESGGGLVQPGGSLRLSCAASGFTFSRAAMSWYRQAPGKEREMVATIGSFGISTNYSDSVKGRFTISRDNAKNTVYLHMNSLKPEDTAVYYCNARYRSTYPWGQGTQVTVSS
notes: alpaca VHH selected against hASIC1a; The name is read out of the printed "C1-4-5"; also called C4 (printed within "C1-4-5"); source: E. coli WK6, periplasm
[3]
  binding result: binds

B12: Nb.C1 (VHH)
VHH: QVQLVESGGGLVQPRGSLRLSCAASGFTFSRAAMSWYRQAPGKEREMVSTIGSFGVSTNYSDSVKGRFTISRDNAKNTVYLHMNSLKPEDTAVYYCNARYRSSYPWGQGTQVTVSS
notes: alpaca VHH selected by phage display against hASIC1a; Expressed from the phagemid pADL-22c; also called Nb.1C; Nb.C1-HA; source: E. coli WK6, periplasm, purified (Ni-NTA); not shown: HA, C-terminal, kept
[4]
  stoichiometry N: 1
[5]
  Kd: ≤ 0.2 nM
[6]
  binding result: no binding (tested: 1 nM)
[7]
  binding result: no binding (tested: 1 nM)
[8]
  binding result: no binding (tested: 1 nM)
[9]
  binding result: no binding (tested: 1 nM)
[10]
  kon: 68000 to 220000 M⁻¹ s⁻¹
[11]
  koff: ≤ 1.4e-05 s⁻¹

B13: 2B-E6 (VHH)
VHH: QVQLVESGGGLVQPGGSLRLSCAASGRTVSSYVMGWYRQAPGKEREFVASVRWTTGLTYVEDSVKGRFTISRDNTKSTVDLQMNSLKPEDTAIYYCNARPLVMLGPTEAGYWGQGTQVTVSS
[2]
  binding result: binds

B14: hASIC1a comprising amino acids 12–478 with a Strep Tag II in the N-terminus (domain or fragment, human, UniProt P78348-2 12-478, looked up)
chain: GVQPVSIQAFASSSTLHGLAHIFSYERLSLKRALWALCFLGSLAVLLCVCTERVQYYFHYHHVTKLDEVAASQLTFPAVTLCNLNEFRFSQVSKNDLYHAGELLALLNNRYEIPDTQMADEKQLEILQDKANFRSFKPKPFNMREFYDRAGHDIRDMLLSCHFRGEVCSAEDFKVVFTRYGKCYTFNSGRDGRPRLKTMKGGTGNGLEIMLDIQQDEYLPVWGETDETSFEAGIKVQIHSQDEPPFIDQLGFGVAPGFQTFVACQEQRLIYLPPPWGTCKAVTMDSDLDFFDSYSITACRIDCETRYLVENCNCRMVHMPGDAPYCTPEQYKECADPALDFLVEKDQEYCVCEMPCNLTRYGKELSMVKIPSKASAKYLAKKFNKSEQYIGENILVLDIFFEVLNYETIEQKKAYEIAGLLGDIGGQMGLFIGASILTVLELFDYAYEVIKHKLCRRGKCQKEAKRS
notes: human acid-sensing ion channel 1a (ASIC1a), residues 12-478 (50 a.a. carboxyl terminal deletion); Trimer in the cryo-EM structure; also called human ASIC1a; recombinant hASIC1a protein; source: HEK293F (FreeStyle 293 F) cells, transfected (pcDNA3.1); crude membranes, solubilised in DDM, purified (Strep Tactin XT, SEC); not shown: Strep Tag II, N-terminal, kept
[12]
  stoichiometry N: 3

B15: 1A-B1 (VHH)
chain: QLQLVESGGGLVQTGESLRLSCVASGIAFSRYIVGWYRQAPGKERELVASVRRNSGTNYVGDLKGGFFISSKNANNTVYQEMNNLKPADDAVYYCSTARPFLGDLPNNCGYWTQVTVSS
[2]
  binding result: binds

B16: H7 (VHH)
VHH: QLQLVESGGGLVQPGGSLRLSCAASGGTIDYYTIGWFRQAPGKEREGVSCIISKADSTKYADTVEGRFTISSDKAKNTVYLQMNSLQPEDTGVYFCAAYRVLIAGRNPGCLLNPPAEYDYWGQGTQVTVSS
[2]
  binding result: binds

B17: E9-3 (VHH)
VHH: QLQLVESGGDLVQPGGSLRLTCAASGFTFSSLTMSWHRQALGKERELVAAIGEATGATYYVESVKGRFIISRDNAKNTVFLQMNSLKPEDTAVYYCKAASSSNDYWGQGTQVTVSS
[2]
  binding result: binds
